The values that follow come from US20110143428A1 (Genentech, published 2011).

Residue numbers refer to the chain shown, from its start.

For orientation: Kd means the concentration at which binding is half-saturated. The term koff denotes the first-order rate constant of dissociation. Low readings indicate a long-lived complex, high ones a short-lived complex. The term kon denotes the rate constant with which the complex forms. Usually IC50 stands for the concentration that inhibits the measured activity by half. Lower therefore signals greater potency in that assay.

The labels stand for the following.
T1: hVEGF-C (human, UniProt P49767)
T1 construct: unlabelled; also called human VEGF-C
T1 sequence (VEGF-C, looked up): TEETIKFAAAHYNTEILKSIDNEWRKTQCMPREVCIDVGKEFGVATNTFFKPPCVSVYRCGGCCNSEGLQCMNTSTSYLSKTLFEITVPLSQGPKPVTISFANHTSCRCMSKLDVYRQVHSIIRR

T2: VEGF-C C137S
T2 construct: also called hVEGF-C C137S; human VEGF-C C137S
T2 VEGF-C: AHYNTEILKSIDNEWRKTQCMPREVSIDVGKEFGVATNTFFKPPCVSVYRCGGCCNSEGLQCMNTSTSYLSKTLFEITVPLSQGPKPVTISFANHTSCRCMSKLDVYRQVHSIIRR

B1: anti-VEGF-C IgG VC3 (antibody, V domains shown)
VH: EVQLVESGGGLVQPGGSLRLSCAASGFTFTNTDIHWVRQAPGKGLEWVAWISPSSGYTDYADSVKGRFTISADTSKNTAYLQMNSLRAEDTAVYYCARWRDYRFGGVMDYWGQGTLVTVSS
VL: DIQMTQSPSSLSASVGDRVTITCRASQDVSTAVAWYQQKPGKAPKLLIYSASFLYSGVPSRFSGSGSGTDFTLTISSLQPEDFATYYCQQSYTTPPTFGQGTKVEIK
notes: Only the six HVRs are tied to this clone; also called clone VC3
B2: anti-VEGF-C IgG VC4 (antibody, V domains shown)
VH: EVQLVESGGGLVQPGGSLRLSCAASGFTFTDNWIHWVRQAPGKGLEWVGVISPYSGATYYADSVKGRFTISADTSKNTAYLQMNSLRAEDTAVYYCARDADYDYAGWAFDYWGQGTLVTVSS
VL: B1 VL
notes: Only the six HVRs are tied to this clone; also called clone VC4
B3: anti-VEGF-C IgG VC1 (antibody, V domains shown)
VH: EVQLVESGGGLVQPGGSLRLSCAASGFTFSDSDIHWVRQAPGKGLEWVAWISPYSGYTDYADSVKGRFTISADTSKNTAYLQMNSLRAEDTAVYYCARLFEVIFDYWGQGTLVTVSS
VL: B1 VL
notes: Only the six HVRs are tied to this clone; also called clone VC1
B4: VC1.12 (antibody, V domains shown)
VH: B3 VH with S55V, Y57F, E101D
VL: DIQMTQSPSSLSASVGDRVTITCRASQDVSTAVAWYQQKPGKAPKLLIYSASFLYSGVPSRFSGSGSGTDFTLTISSLQPEDFATYYCQQSYTTPPTFGQGTKVEIKR
notes: also called clone VC1.12
B5: VC1.12.6 (antibody, V domains shown)
VH: B3 VH with S55V, Y57F, E101D
VL: B1 VL with T93N
notes: also called clone VC1.12.6
B6: VC1.12.3 (antibody, V domains shown)
VH: B3 VH with S55V, Y57F, E101D
VL: B1 VL with S91T, T93A, T94I
notes: also called clone VC1.12.3
B7: VC1.12.10 (antibody, V domains shown)
VH: B3 VH with S55V, Y57F, E101D
VL: B1 VL with T93Y, T94S, P96L
notes: also called clone VC1.12.10
B8: VC1.12.2 (antibody, V domains shown)
VH: B3 VH with S55V, Y57F, E101D
VL: B1 VL with T93W, P96L
notes: also called clone VC1.12.2
B9: VC1.12.1 (antibody, V domains shown)
VH: B3 VH with S55V, Y57F, E101D
VL: B1 VL with T93N, T94I
notes: also called clone VC1.12.1
B10: VC1.12.4 (antibody, V domains shown)
VH: B3 VH with S55V, Y57F, E101D
VL: B1 VL with T94S, P96T
notes: also called clone VC1.12.4
B11: VC1.12.9 (antibody, V domains shown)
VH: B3 VH with S55V, Y57F, E101D
VL: B1 VL with T94I
notes: also called clone VC1.12.9
B12: VC1.12.5 (antibody, V domains shown)
VH: B3 VH with S55V, Y57F, E101D
VL: B1 VL with P96T
notes: also called clone VC1.12.5
B13: VC1.12.8 (antibody, V domains shown)
VH: B3 VH with S55V, Y57F, E101D
VL: B1 VL with T93I
notes: also called clone VC1.12.8
B14: VC4.2 (antibody, V domains shown)
VH: B2 VH with D103A, G106W
VL: B1 VL
notes: also called clone VC4.2
B15: VC4.3 (antibody, V domains shown)
VH: B2 VH with D31Y, N32S, V50F, Y54G, S55V, A57Y, T58S
VL: B1 VL with S91T, T93R, T94I, P96Y
notes: also called clone VC4.3
B16: VC4.4 (antibody, V domains shown)
VH: B2 VH with A100V, D103Y, G106W, F109L
VL: B1 VL
notes: also called clone VC4.4
B17: VC1.11 (antibody, V domains shown)
VH: B3 VH with A97V, F100Y, E101D
VL: B1 VL
notes: also called clone VC1.11
B18: VC1.2 (antibody, V domains shown)
VH: B3 VH with V102I
VL: B1 VL
notes: also called clone VC1.2
B19: VC1.7 (antibody, V domains shown)
VH: B3 VH with E101D, V102I
VL: B1 VL
notes: also called clone VC1.7
B20: VC1.3 (antibody, V domains shown)
VH: B3 VH with A97V
VL: B1 VL
notes: also called clone VC1.3
B21: VC1.10 (antibody, V domains shown)
VH: B3 VH with A97V, E101G, V102I
VL: B1 VL
notes: also called clone VC1.10
B22: VC1.8 (antibody, V domains shown)
VH: B3 VH with A97T, E101T, V102I
VL: B1 VL
notes: also called clone VC1.8
B23: VC1.6 (antibody, V domains shown)
VH: B3 VH with A97V, E101D
VL: B1 VL
notes: also called clone VC1.6
B24: VC1.5 (antibody, V domains shown)
VH: B3 VH with F100W
VL: B1 VL
notes: also called clone VC1.5
B25: VC1.4 (antibody, V domains shown)
VH: B3 VH with A97V, E101G
VL: B1 VL
notes: also called clone VC1.4

The target of the first assay is T1, hVEGF-C. Put plainly: SPR, BIAcore-3000, 25 C: human IgG captured on CM5 chip (about 500 RU), human VEGF-C injected at 12.5-500 nM, 1:1 Langmuir fit. For orientation: SPR reads the build-up and loss of mass on a sensor chip optically.
Molecule B1 had a Kd of 0.92 nM, a koff of 0.000541 s⁻¹ and a kon of 588000 M⁻¹ s⁻¹.
The like results for B2 were, in that order, 0.97 nM, 0.000263 s⁻¹ and 271000 M⁻¹ s⁻¹.
The like results for B3 were, in that order, 0.17 nM, 0.000189 s⁻¹ and 1.07e+06 M⁻¹ s⁻¹.

The target in another assay is T2, VEGF-C C137S. Put plainly: phage competition ELISA as in paragraph 556 with human VEGF-C C137S as antigen: phage-displayed clone, soluble antigen varied, anti-M13-HRP, OD450. In general terms: ELISA stands for enzyme-linked immunosorbent assay.
The molecule B4 came in with an IC50 of 32.4 nM.
For B5, the IC50 was found to be 32.8 nM.
The same measure, in the same setting: the result for B6 reads 23 nM; that for B7, 16.8 nM.
In turn, B8 showed an IC50 of 25.9 nM.
The same measure, in the same setting: the result for B9 reads 7.29 nM; that for B10, 7.7 nM; that for B11, 4.8 nM.
B12 yielded an IC50 of 28.1 nM.
B13: the IC50 is 13.7 nM.

A further assay has as its target T1, hVEGF-C. As to the kind of experiment: phage competition ELISA: phage-displayed clone incubated with increasing soluble hVEGF-C, unbound phage captured on hVEGF-C coated plate, anti-M13-HRP, OD450.
Turning to B1, the 50% inhibitory concentration (IC50) turned out to be 300 nM.
The same measure, in the same setting: then B2, with 32 nM; and B3, with 38 nM.

For another assay, the target named is T1, hVEGF-C. Described as above. This is another data set of the same source.
B2 gave an IC50 of 32 nM.
On the same count and under the same terms, then B14, with 2.64 nM; and B15, with 2.72 nM.
Still for that read-out and setting: the result for B16 reads 2.17 nM.

For another assay, the target named is T1, hVEGF-C. The description is as above. The source holds these as a separate data set.
Consider B4, for which the IC50 was 5.1 nM.
As to B3, the IC50 worked out at 21.5 nM.
Still for that read-out and setting: then B17, with 25.3 nM; and B18, with 27.1 nM.
On the same count and under the same terms, then B19, with 20 nM; and B20, with 22.1 nM; and B21, with 17 nM.
On the same count and under the same terms, then B22, with 22.5 nM; and B23, with 15.4 nM.
Regarding B24, the IC50 was found to be 28 nM.
B25 had an IC50 of 40.7 nM.
